Assay: yeast display, Sf9 membrane polyspecificity reagent, FACS + sequencing; frameworks hold sequencing errors
Outline: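 Using colony PCR, genes from sorted yeast display clones were amplified, then sequenced on MiSeq at 2 × 250 and filtered by CDR length. The clones had been stained with 10% biotinylated, detergent-solubilized Sf9 membrane reagent for 1 hour at 4 °C and sorted by FACS into low and high (top ~1%) gates on anti-HA and streptavidin fluorescence. Polyreactivity labels come from the gate of origin.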

Row | Sequence | polyreactivity (PSR sort gate)
1 | HVQLVESGGGLVQAGGSLRLSCAASGGIFVYYAMGWYRQAPGKVRELVAAISRSAASTYYADSVKGRFTISRDNAKNTVYLQMNSLKPEDTADYYCAAGQLTDKGGGDSWGQGTQVTVSS | low polyreactivity
2 | QVQHVESGGGLVQAGGSLSLSCAASGFIFSAYAMGWYRRAAGKERKLVDAITRSGGITDYADSVKGRFTISRDIAKNTVYLQMNSLKPEDTADYYCAALRVQQVKSYYYWGQGTQVTVSW | high polyreactivity
3 | QVQLVESGGGLVQAGGSLRLSCAASGFILARYAMGWYRQAPGKERELVAVISSGGSSTFYADSVKGRFTISRDNAKNTVYLQMNSLKPEDTAVYYCAARYKSSKKVGFDYWGQGTQVTVSS | high polyreactivity
4 | QVQLVESGGRLVQAGGRLRLICAASGFIFSDYAMGWYRQAPGKERELVAAISWRGGSTYYADSVKGRFTISRDKEKNSVYLQMNSLKPEDTAVYYCAADYGAYDMDYWGQGTQVTVSS | high polyreactivity
5 | QVQLVESGGGLVQAGGSLRLSCAASGSTFTWYAMGWYRQAPGKERELVADISYGGGSTYYADSVKGRFTISRDNAKNTVYLPMNSLKPEDTAVYYCAAESIPYYRYDYWGQGTQVTVSS | low polyreactivity
6 | QVQLVESGGGLVQAGGSLRLSCAASGRTFSRYAMGCYRQAPGKERELVAVITSSGASTYYADSVKGRFTISRDNAKNTVYLQMNSLKPEDTAVYYCAADRYYRGRRMNYWRQGTQVTVSS | high polyreactivity
7 | QVQLVESGGGLVQAGGSLRLSCAASGFTFDENAMGWYRQAPGINYSGASTYYADSVKGRFTISRDNAKNTVYLQMNSLKPDDTAVYYCAAEVVAQMNYWGQGTQVTVSS | low polyreactivity
8 | QVQLVESGGGLVQAGGSLRLSCAASGSTFRGYAMGWYRQAPGKERELVAAISRSGGSTYYADSVKGRFTSSRDNAKNTVYLQMNSLKPEDTGVYYCAKRTSGYYWQWFDYCGQGTQVTVSS | high polyreactivity
9 | QVHLVESGGGLFQAGGSLRLSCAASGSTFTDYDMGWYRQAPGKDRELVASITSGGSTNYADSVKGRFTISRDNAKNTVYLQMNSLKPEDTAVYYGAAADADRKYDYWGQGTQVTVSS | low polyreactivity
10 | QVQLVESGGCLVQAGGSLRLSCAASGITFYEYAMGWSRQAPGKERELVAGITWSGGSTYYADSVKGRFTISRDNAKNTVYLEMNSLKPEDTAVYYCAATGAFWYPYDYWGQGTQVTVSS | high polyreactivity
11 | QVQLVESGGGLVQAGGSLRLSCAASGSIGYYAMGWYRQAPGKERELVAAIDWSGGDTYYADSVKGRFTISRDNAKNTVYLQMNSLKPEDTAVYYCAKRLYLKTCAASSADDYWGQGTQVTVSS | low polyreactivity
12 | QVQLLESGGGLVQAGGSLRLSCAASGSTFSYNAMGWYIQAPGKERELVAAIDRSVSTNYADSVKGRFTISRDNAKNTVYLQMNSLKPEDTEVYYCNARHPTDDIVIYDYWGQGTQVTVSS | low polyreactivity
13 | QLQLVESGGVLVQAGGSLRLSCAASGTFYGYVMGWYRQAPGKERELGASINWSGGSTNYADSVKGRFTISRDNAKNTVFFQMNSRKPEDTAVYYCNADWGWGAYDYWGQGTQVTVSS | low polyreactivity
14 | QVQLVESGGGLVQAGGSLRLSCAASGRIFTGNAMGWYRQAPGKERELVAAITGRGGNTYYADSGKGRFTISRDNAKNTVYLLMNSLKPEDTAGYYGAKVFFHTPIVPEYDYWGQGTHVTVSS | low polyreactivity
15 | QVQLVESGGGLVQAGGSLRFSCAASGFTFSDYAMGWYRQAPGKEREFVAAITRRGGSTYYADSVKGRFTISRDNAKNTVYLQMNSLKPEDTAVYYCAKRGLRSYSFPLWQGYDYWGQGTQVTVSS | high polyreactivity
16 | QVQLVESGGGLVQAGGSLRLSSAASGLIFTRYAMGWYRQATGKERELVAAISYSGTSTYYADSVKGRFTISRDNAKNTVYLQMNSLKPEDTAVYYCAARSSYPLKGYYWGQGTQVTVSS | high polyreactivity
17 | QVQLVESGGGLVQAGGSLRLSCAASGYNFYRYAMGWYRQAPGKEMELVATIRSGGSTNYADSVKGRFTISRDNAKNTVYLQMNSLKPEDTAVYYCAKVRGWYDPYTYGYSEYGYWGQGTQVTVSS | low polyreactivity
18 | QVKLVESGGGLVQAGGSLRLSCAASGRTFYSYAMGWYRQAPGKERELVAAISAGGSTYYADSVKGRFTISRDNAKNTVYLQMTSLKPEDTAVYYCAAPVRYTYWRYPYDYWGQGTQVTVSS | high polyreactivity
19 | QVQLVESGGGLVQAGGSLRLSCAASGSTFQLNAMGWYRQAPGKERELVAAISVRGGSTYYADSVKGRFTISRDTAKNTVYLQMHSLKPEETAVYYCATDSLYFLFAGDAVVRRPSYYWGQGTQVTVSS | high polyreactivity
20 | QVQLVESGGGLVQAGGSLRLSCAASGSIFDYYAMGWYRQAPGKERELVAAISSSGARTSYADSVKGRFTISRDNAKNTVYLQMNSLKPEDTAVYYCAAPYRSLKTGRYDYWGQGTQVTVSS | high polyreactivity
21 | QVQLVESGGGLVQAGGSLRLSCAASGRIFKRYTMGWYRQAPGKERELVAGITFSGGSTYYADSVKGRFTISRDNAKNTVYLQMNSLKPEDTAVYDCNARVPPQGWGPWKAFDYWGQGTQVTVSS | low polyreactivity
22 | QVQLVESGGGLVQAGGSLRLRCPASGRIIGSYTMGSYRQAPGKERELVAAISFSGARTRYADSVKGRFTISRDNAKNTVYFQMNSLKAEDTAVYYCAARFTGGKYDYWGLGTQVTVSS | high polyreactivity

Row | Sequence | polyreactivity (PSR sort gate)
23 | QVQLVESGAGLVQAGGRLRLSCADSGYIFKSYAIGWYRQAPGKEREFVAAISWSGGSTYADSVKGRFTISRDNAKNTVYLQMNSLKPEDTAVYSCAAVDYYYYGVYSSWYEYWGQGTQVTVSS | low polyreactivity
24 | QVQLVESGGCLDQAGGSLRLSCAASGFTLHSYAMGWYRQAPGKERELVAAITTGGSTYYADSVKGRLTISRDNAKNTVYLQMNSLKPEDTAVYYCAAEDPGPYGGYVYWGQGTQVTVSS | low polyreactivity
25 | QVQLVESGGGLVQAGGSLRLSCAASGSSLGLNAMGWYRQAPGKERELVAGISWRGGSTYYADSVKGRFTISRDNAKNTVYLQMNSLKPEDTAVYYCNAVRFYGRWRGYDYWGQGTQVTVSS | high polyreactivity
26 | QDQLVESGGGLVQAGGSLRLSCAASGRIFVYYVMGLYRQAPGKERELVAAITYSGGSTYYADSVKGRFTISRDNAKNTVYLQMNSLKPEDTAVYYCNNVDAFGIVRLYYWGQGTQVTVSS | low polyreactivity
27 | QVQLVESGGGLVQAGGSLRLSCAASGSTFGNNAMGWYRQAAGKERELVAGINSGGSTTYADSVKGRFTISRDNAKNTVYLQMNSLKPEDTAVYYCAAVYYYYSWYSKHYYWGQGTQVTVSS | low polyreactivity
28 | QVQLVESGGGLVQAGGSLRLSCAASGSIFRINDMGWYRQAPGKERELVAAITFSGGSTYADSVKGRFTISRDNAKNTVNLQMNSLKPEDTAVYYCNADGAYWTDYYLYDYWGQGTQVTVSS | low polyreactivity
29 | QVQLVESGGGLVHAGGSLRLSCAASGYIFTRNMGWYRQAPGKERELVAAITWSGGSTYYADSVKGRFTISRDNAKNTVYLQINSLKPEDTAVYYCAADYGWSVGRRYYYWGQGTQVTVSS | high polyreactivity
30 | QVQLVESGGGLVQAGGSLRLSCAASGIIFWFYAMGWYRQAPGKERELVAVISWNGDSTYYADSVKGRFTISRDNAKNTVYLQMNSLKPEDTEVYYCSAETYLGVYGSEYDYWGQGTQVTVSS | low polyreactivity
31 | QVQLVESGGGLVQAGGSLRLSCAASGITFETYALGWSRQAPGKERELVASIDYDGTSTYYADSVKGRFTISRDNAKNTVYLQMNSLKPEDTAVYYCNARDLDNYGWDDEEYDYWGQGTQVSVSS | low polyreactivity
32 | QVHLVESGGGLVHAGGSLRLSCAASGFTLAWNAMGWYRQAPGKETELVATISRYGSSTSYADSVKGRFTISRDNSKNTVYLQMNSLKPEDTAVYYCAADRYTFRMDYWGQGTQVTVSS | high polyreactivity
33 | QLQLVESGGGVVQAGGSLRLSCAASGGIFDRYAMGCDRQAPGKERELVAAITSGGSTNYADSVKGRFTISRDNAKNTVYLQMNSLQPEDTAVYYCNADLGILSGVAEGPTFREYDYWGQGTQVTVSS | low polyreactivity
34 | QVQLVESGGGLVQAGGSLRLICAASGYTFFFYAMGWYRQAPGKEREFVAAITWRGDSTYYADSVKGRYTISRDNAKNTVYLQMNSLKPEDTAVYYCAADPGFTWSRRMDYWGHGTQVTVSS | low polyreactivity
35 | QVQLVESGGGLVQAGGSLRLSCAASGSIFRSYAMGWYRQAPGKQREFVAAITGSGGRTYYADSVKGRFTISRDNAKNTVYLQMNCLKPEDTAVYYCAAALSRRYKSGGPYGFNYWGQGTQVTVSS | high polyreactivity
36 | QVQLVESGGGLVQAGGSLRLSCAASGSIFTRNTMGWYRQAPGKDRELVAAITWIGGRTYYADSVKGRFTISRDNAKNTVYLQMNSLKPEDTAVYYCAARSDPYWWQKYYYWGQGTQVTVSS | high polyreactivity
37 | QVHLVESGGGLVQAGGSLRLSCAASGGTFRVYAMGWYRQAPGKEWELVASISNGGSTNYADSEKGRFTISRDNAKNTVYLQMNSLKPEDTAVYYCAADPSYEVWYYDSPEYNYWGQGTQVTVSS | low polyreactivity
38 | QVQLVESGGGLVQAGGSLRLSCAASGYIINYNAMGWYRQAPGKERELVAAISSRGGSTYYADSVKGRFTISRDNAKNTVYLQMNSLKPEDTAVYYCNARYYSWYQRYDRRRGYDYWGQGTQVTVSS | low polyreactivity
39 | QVQLVESGGGLVQAGGSLRLSCAASGSTSYWYAMGWYRQAPGKESELVATIRSRGGSTSYADSVKGRFTIARDNAKNTVYLQMNSLKPEDTAVNYCNTRKLYQVDYDYLGQGTQVTVSS | high polyreactivity
40 | QVQLVESGGGLVQAGGSLRLSCAASGFIFHRYAMGWYRQAPGKERELVATITASGGSTYYADSVKGRFTISRDNAKNTVYLQMNSLKPEDTAVYYCAAGSFSRGRRTRQYNFDYWGQGTQVTVSS | high polyreactivity
41 | QVQLVESGGGLVQAGGSLRLSCAASGRTFRRYTMGWYTQAPGKVRELVAAITTSGGSTYYADSVKGRFTISRDNAKHTVYLQMNSLKPEDTAVYYCAATRRYSGDFWGQGTQVTVSS | high polyreactivity
42 | QVQLVESGGGLVQAGGSLRLSCAASGRTSRIYAMGLYRQAPGKERELVASISRRGGITYYADSVKGRFTISRDNAKTTVDFQMTSLKPEDTAVYYSASYYTNKVPARYYWGQGTEVTVSS | high polyreactivity
43 | QVQIVESGGGLVQAGGSLRLTCAASGSTLTIYARGWYRQAPGKERDLVAAISRSGGRTYYADSVKGRFTISRDYAKNTVYLQMNSLKPEDTAVYYCAARGWSYRSVGYMDYWGQGTQVTVSS | high polyreactivity

Reference: the nanobody polyreactivity screen of Harvey et al. (2022)
